Reference: PMC11036078, “PD‐1 inhibition with retifanlimab and/or arginase inhibition with INCB001158 in Japanese patients with solid tumors: A phase I study” (Cancer Medicine, 2024)
Where “and” joins values, the source holds several entries; their conditions need not be identical. Identical values can stand only once. Entries after “also recorded” stand apart in the source; their conditions may differ. Like-named read-outs stand apart in the source and are kept apart here.

Tests used:
[1] = Retifanlimab serum pharmacokinetics (electrochemiluminescence immunoassay, noncompartmental analysis); assay type: in vivo, Japanese patients; conditions: for Retifanlimab tmax: median (min, max)
Experimental: (§1) Pharmacokinetics of single‐agent retifanlimab and INCB001158, and the combination, were secondary endpoints of the study. The detection of anti‐drug antibodies (ADAs) was an exploratory endpoint. Blood samples for retifanlimab PK assessments were taken on days 1 (−2 h pre‐dose, end of infusion, and 6 h post‐dose), 2, 8, and 15 (no specified time) of cycle 1, day 1 of cycles 2–8 (−2 h pre‐dose, and end of infusion on cycles 2 and 6 only), and day 1 of every 4 cycles after cycle 8 (−2 h pre‐dose). Samples for ADA assessment were collected at the same time as for PK analysis, and an additional sample was collected at safety follow‐up on day 15 (no specified time). Blood samples for INCB001158 were collected pre‐dose, 0.5, 1, 2, 4, 6, and 8 h post‐dose on days 1 and 15 of cycle 1, 12 h post‐dose on day 1 of cycle 1, and pre‐dose on days 2 and 8 for cycle 1, and day 1 of cycle 2. Serum concentrations of retifanlimab were determined using an electrochemiluminescence immunoassay method, and plasma concentrations of INCB001158 were measured using a validated liquid chromatography with tandem mass spectrometry assay (Incyte Corporation, Wilmington, DE, USA). ADAs against retifanlimab were monitored using a bridging immunoassay (Incyte Corporation).
Pharmacokinetics parameters were derived from concentrations versus time data using model‐independent noncompartmental analysis methods (WinNonlin v8.2, Certara USA Inc., Princeton, NJ, USA), and included maximum observed serum or plasma concentration (C max), serum or plasma concentration observed at the end of the dosing interval (C tau), time to maximum observed serum or plasma concentration (t max), area under the serum or plasma concentration–time curve (AUC) from time 0 to the end of the dosing interval (AUCtau), AUC from time 0 to infinity (AUC0‐∞), apparent terminal‐phase disposition half‐life, clearance, and volume of distribution. […]

advanced solid tumors [2] = conditions: cited from earlier work
[3] = Western patients; ref POD1UM‐101 (NCT03059823); cited from earlier work
[4] = Safety and tolerability (TEAEs, DLTs, irAEs; NCI CTCAE v5.0), phase Ib POD1UM-104; conditions: in vivo
Experimental: This was a phase Ib, open‐label, multicenter study (POD1UM‐104 [NCT03910530]). The study was conducted in 2 parts. In Part 1, patients received single‐agent retifanlimab or escalating doses of single‐agent INCB001158 to confirm the RP2D of each agent. Single‐agent dosing was performed to comply with local regulations. In Part 2, patients received the combination of retifanlimab and INCB001158 at their respective RP2D determined in Part 1, to further explore safety and preliminary evidence of clinical activity. Treatment cycles in Part 1 and Part 2 were 28 days, and patients could receive treatment for up to 2 years, or until disease progression, unacceptable toxicity, death, or patient withdrawal.
In Part 1, 6 patients received retifanlimab 500 mg every 4 weeks (Q4W), given as an i.v. infusion over 60 min; this dose was based on the RP2D determined from global studies. The starting dose of INCB001158 was 75 mg taken orally twice daily (BID). Dose escalation of INCB001158 followed a standard 3 + 3 design; if 75 mg BID was deemed to be tolerable in at least 3 patients, a 100‐mg BID dose level cohort comprising at least 3 patients would be opened.
DLTs were assessed by the investigator according to the National Cancer Institute (NCI) Common Terminology Criteria for Adverse Events (CTCAE) v5.0 criteria (Table S1).
The primary endpoints of the study were safety, tolerability, DLTs, and RP2D of single‐agent retifanlimab, INCB001158, and the combination. Adverse events (AEs) were graded by NCI CTCAE v5.0, and immune‐related adverse events (irAEs) were monitored as AEs of special interest. Physical examinations, monitoring of vital signs, electrocardiograms, and laboratory assessments were conducted throughout the study.
(§2) Safety and efficacy analyses were conducted in the full analysis set, which comprised all enrolled patients who received at least 1 dose of the study drug.
(§3) Safety data were summarized using descriptive statistics. PK parameters were summarized by study part, treatment regimen, cohort, dose levels, and/or visit. ORR and DCR were reported with their exact 95% confidence intervals (CIs); DOR was based on the Kaplan–Meier estimate of the distribution function, and the estimated median along with 95% CI was reported. Statistical analyses were performed using SAS® software v9.4 or later (SAS Institute Inc., Cary, NC, USA).

[5] = system: ADAs against retifanlimab; assay: Anti-drug antibodies against retifanlimab (bridging immunoassay); conditions: samples from 12 Japanese patients
Experimental: as §1

advanced solid tumors [6] = assay: Clinical activity by investigator per RECIST v1.1 (ORR, DCR, DOR); assay type: in vivo, Japanese patients
Experimental: Preliminary clinical activity of single‐agent retifanlimab and INCB001158, and the combination, was an additional secondary endpoint. Diagnostic imaging was performed by computed tomography scan every 8 ± 1 weeks. Clinical activity was assessed by measuring overall response rate (ORR), defined as the percentage of patients experiencing a complete or partial response (CR or PR) as determined by the investigator according to Response Evaluation Criteria in Solid Tumors (RECIST) v1.1; disease control rate (DCR), defined as the percentage of patients maintaining either an objective response or stable disease (SD) for at least 12 weeks per RECIST v1.1; and duration of response (DOR), defined as the time from first observed response until onset of progressive disease (PD) as determined by the investigator according to RECIST v1.1 or death from any cause.
as §2, §3

[7] = first dose, in combination with INCB001158, n = 3
[8] = first dose, monotherapy 500 mg Q4W, n = 6
[9] = first dose, POD1UM-104 vs POD1UM‐101
[10] = RECIST v1.1, investigator, n = 6 per group
[11] = RECIST v1.1, investigator, n = 6 per group, listed as retifanlimab

In the case of “Retifanlimab: humanized, hinge‐stabilized immunoglobulin G4κ monoclonal antibody targeting PD‐1”, the Retifanlimab tmax ([1]; 500 mg Q4W i.v. monotherapy, first dose, POD1UM-104, n = 6) is reported as 1.9 (1.1, 7.1) h, the “Geometric mean clearance normalized for body weight” value ([1]; Japanese patients [POD1UM‐104]) is reported as 3.1 mL/day/kg and the “Geometric mean volume of distribution normalized for body weight” value ([1]; Japanese patients [POD1UM‐104]) is reported as 0.0955 L/kg. The “Mean Ctau at steady state higher in Japanese than Western patients” value ([1]; POD1UM-104 vs POD1UM‐101) was 43%, the “Drug–drug interaction (retifanlimab PK, combination vs monotherapy cohorts)” value ([1]; combination cohort) was “no drug–drug interaction” and the Retifanlimab tmax ([1]; first dose, 500 mg Q4W in combination with INCB001158, n = 3) was 0.82 (0.78, 6.0) h. For the same substance, the “Retifanlimab geometric mean AUCtau” value [1, 7] was 2280 mg·days/L, the “Retifanlimab geometric mean Cmax” value [1, 7] was 187 µg/mL and the “Retifanlimab geometric mean Ctau” value [1, 7] was 19.0 mg/L. For the same substance, the Retifanlimab median tmax [1, 7] was 0.82 h, the “Retifanlimab geometric mean AUC0‐∞” value [1, 8] was 2990 mg·days/L and the “Retifanlimab geometric mean AUCtau” value [1, 8] was 1910 mg·days/L. The “Retifanlimab geometric mean Cmax” value [1, 8] was 209 µg/mL, the “Retifanlimab geometric mean Ctau at the end of the 4‐week dosing period” value [1, 8] was 33.9 mg/L and the “Retifanlimab geometric mean clearance” value [1, 8] was 0.167 L/day. The “Retifanlimab geometric mean half‐life” value [1, 8] was 509 h, the “Retifanlimab half‐life, range” value [1, 8] was 386 to 730 h and the Retifanlimab median tmax [1, 8] was 1.9 h. For the same substance, the “Retifanlimab volume of distribution” value [1, 8] was 5.12 L, the “Geometric mean AUC0‐∞ higher in Japanese than Western patients” value [1, 9] was 66% and the “Geometric mean AUCtau higher in Japanese than Western patients” value [1, 9] was 47%. The “Geometric mean Cmax higher in Japanese than Western patients” value [1, 9] was 31%, the “Retifanlimab trough concentrations from cycle 1 to cycle 7” value ([1]; monotherapy, 3 patients with available data) was “generally increased” and the “Patients with a response” value (advanced solid tumors [2]; first‐in‐human study, endometrial cancer, 3 of 29 patients) was 10%. The “Patients with a response” value (advanced solid tumors [2]; first‐in‐human study, non‐small cell lung cancer, 6 of 26 patients) was 23%, the “Patients with SD” value (advanced solid tumors [2]; phase II study, SCAC) was 35% and the “Patients with a response” value (advanced solid tumors [2]; phase II study, SCAC) was 14%. For the same substance, the “Patients with an objective response” value (advanced solid tumors [2]; recurrent MSI‐H or dMMR endometrial cancer, 33 of 76 patients) was 43%, the “Geometric mean clearance normalized for body weight” value [3] was 4.05 mL/day/kg and the “Geometric mean volume of distribution normalized for body weight” value [3] was 0.0857 L/kg. The “Grade 3 AEs reported but not occurring during the treatment window” value [4] was “lymphocyte count decreased”, the “Retifanlimab infusion interruption because of a TEAE” value [4] was 1 (16.7) n (%) and the “Serious TEAE after data cutoff” value [4] was “myocarditis”. For the same substance, the “Serious TEAEs (terms)” value [4] was “grade 3 femoral neck fracture (n = 1), grade 3 ileus and pyelonephritis (n = 1)”, the “TEAE: ALT increased” value [4] was 1 (16.7) n (%) and the “TEAE: AST increased” value [4] was 1 (16.7) n (%). For the same substance, the “TEAE: Amylase increased” value [4] was 2 (33.3) n (%), the “TEAE: Anemia” value [4] was 1 (16.7) n (%) and the “TEAE: Blood creatinine increased” value [4] was 1 (16.7) n (%). For the same substance, the “TEAE: Diarrhea” value [4] was 1 (16.7) n (%), the “TEAE: Nausea” value [4] was 1 (16.7) n (%) and the “TEAE: Tumor pain” value [4] was 0 n (%). For the same substance, the “TRAEs reported (terms)” value [4] was “infusion‐related reactions (n = 1), pruritus (n = 1), rash (n = 1), and 1 patient who reported multiple TRAEs, consisting of anemia worsening, fatigue, diarrhea, pruritus, rash, elevated lipase, increased alanine aminotransferase (ALT), and increased aspartate aminotransferase (AST)”, the “Treatment discontinuation because of a TEAE” value [4] was 0 n (%) and the “Retifanlimab ADAs detected” value [5] was “No retifanlimab ADAs were detected; also recorded: No ADAs toward retifanlimab were observed”. The “Median DOR” value (advanced solid tumors [6]; Kaplan–Meier, 95% CI, 6.8 months‐not estimable, median follow‐up 11.6 months) was “not estimable”, the “Best overall response: Complete response” value (advanced solid tumors [6]; [10]) was 1 (16.7) n (%) and the “Best overall response: Partial response” value (advanced solid tumors [6]; [10]) was 1 (16.7) n (%). For the same substance, the “Best overall response: Progressive disease” value (advanced solid tumors [6]; [10]) was 3 (50.0) n (%), the “Best overall response: Stable disease” value (advanced solid tumors [6]; [10]) was 1 (16.7) n (%) and the “Best overall response: Complete response” value (advanced solid tumors [6]; [11]) was 1 n (%). For the same substance, the “Best overall response: Partial response” value (advanced solid tumors [6]; [11]) was 1 n (%), the “Best overall response: Stable disease” value (advanced solid tumors [6]; [11]) was 1 n (%) and the “ORR” value (advanced solid tumors [6]; RECIST v1.1, n = 6, 95% CI, 4.3–77.7) was 33.3% and 33%. The “DCR” value (advanced solid tumors [6]; RECIST v1.1, n = 6 per group, 95% CI, 11.8–88.2) was 50%, the “DOR of the patient with CR” value (advanced solid tumors [6]; endometrial cancer, ongoing at data cutoff) was 16.4 months and the “DOR of the patient with PR” value (advanced solid tumors [6]; lung cancer) was 6.8 months.
